The values below are quoted from earlier work in publication PMC2799686.

The series concerns the target DnaK (Escherichia coli) (UniProt P0A6Y8). In words: competition.

Sequence of DnaK (Escherichia coli) (P0A6Y8 2-638): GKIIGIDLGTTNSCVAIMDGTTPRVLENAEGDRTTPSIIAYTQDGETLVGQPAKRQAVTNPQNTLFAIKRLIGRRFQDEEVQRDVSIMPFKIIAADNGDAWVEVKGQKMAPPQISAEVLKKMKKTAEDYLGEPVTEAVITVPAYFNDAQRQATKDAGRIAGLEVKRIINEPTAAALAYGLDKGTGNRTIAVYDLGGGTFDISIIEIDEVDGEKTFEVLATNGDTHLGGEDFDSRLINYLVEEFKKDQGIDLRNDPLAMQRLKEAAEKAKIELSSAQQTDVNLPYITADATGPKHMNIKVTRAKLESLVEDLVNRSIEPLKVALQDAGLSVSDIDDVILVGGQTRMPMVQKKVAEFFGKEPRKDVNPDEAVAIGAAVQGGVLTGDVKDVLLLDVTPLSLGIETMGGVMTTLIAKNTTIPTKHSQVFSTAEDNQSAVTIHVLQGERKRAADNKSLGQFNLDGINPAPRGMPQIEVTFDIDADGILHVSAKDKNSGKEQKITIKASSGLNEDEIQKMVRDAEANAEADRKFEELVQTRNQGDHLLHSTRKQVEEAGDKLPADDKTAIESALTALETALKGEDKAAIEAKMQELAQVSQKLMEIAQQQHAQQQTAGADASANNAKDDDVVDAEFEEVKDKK
Sequence of pyrrhocoricin (P37362 whole entry): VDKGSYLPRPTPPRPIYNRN

With pyrrhocoricin (from UniProt P37362), the Kd (usually the concentration at which binding is half-saturated) is 50 µM.
